Patent publication US20040059519A1

What was measured:
[1] = target: Human chorionic gonadotropin (human) (UniProt P01215); assay: bead sandwich, flow cytometry; capture B1 (AB633) beads, hCG 20.0 ug/mL
Alpha fetoprotein [2] = target: Alpha fetoprotein (UniProt P02771); assay: MAB602 capture beads, flow cytometry; AFP 10.0 ng/mL, anti-AFP probe
Alpha fetoprotein [3] = target: Alpha fetoprotein (UniProt P02771); assay: MAB602 capture beads, flow cytometry; AFP 0.0 ng/mL, anti-AFP probe
[4] = target: Human chorionic gonadotropin (human) (UniProt P01215); assay: bead sandwich, flow cytometry; capture B1 (AB633) beads, no hCG (background)
[5] = target: Human chorionic gonadotropin (human) (UniProt P01215); assay: bead sandwich, flow cytometry; capture B2 beads, no hCG (background)
Alpha fetoprotein [6] = target: Alpha fetoprotein (UniProt P02771); assay: MAB602 capture beads, flow cytometry; AFP 1000.0 ng/mL, anti-AFP probe
Alpha fetoprotein [7] = target: Alpha fetoprotein (UniProt P02771); assay: MAB602 capture beads, flow cytometry; AFP 0.1 ng/mL, anti-AFP probe
Alpha fetoprotein [8] = target: Alpha fetoprotein (UniProt P02771); assay: MAB602 capture beads, flow cytometry; AFP 1.0 ng/mL, anti-AFP probe
Alpha fetoprotein [9] = target: Alpha fetoprotein (UniProt P02771); assay: MAB602 capture beads, flow cytometry; AFP 100.0 ng/mL, anti-AFP probe
[10] = target: Human chorionic gonadotropin (human) (UniProt P01215); assay: bead sandwich, flow cytometry; capture B2 beads, hCG 20.0 ug/mL

Chain of UniProt P02771 (P02771 19-609 limits assumed): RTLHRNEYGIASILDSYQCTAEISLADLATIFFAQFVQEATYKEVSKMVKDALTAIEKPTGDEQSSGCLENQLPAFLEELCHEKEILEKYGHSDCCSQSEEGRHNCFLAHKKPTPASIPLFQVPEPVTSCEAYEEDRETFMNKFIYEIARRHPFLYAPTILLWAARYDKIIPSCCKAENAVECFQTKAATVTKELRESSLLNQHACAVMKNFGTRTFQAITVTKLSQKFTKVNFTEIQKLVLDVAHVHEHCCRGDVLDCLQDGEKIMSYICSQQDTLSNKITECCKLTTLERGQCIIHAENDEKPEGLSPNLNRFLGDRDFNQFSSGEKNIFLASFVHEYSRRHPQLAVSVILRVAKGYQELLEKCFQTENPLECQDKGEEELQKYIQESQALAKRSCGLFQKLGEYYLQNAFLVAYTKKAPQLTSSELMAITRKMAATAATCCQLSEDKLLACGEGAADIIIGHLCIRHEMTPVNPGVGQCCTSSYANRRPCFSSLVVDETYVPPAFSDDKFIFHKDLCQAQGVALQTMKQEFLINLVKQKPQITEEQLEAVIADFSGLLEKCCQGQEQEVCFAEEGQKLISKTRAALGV
Chain of UniProt P01215 (P01215 25-116, chain 1 of 2, other chains not shown): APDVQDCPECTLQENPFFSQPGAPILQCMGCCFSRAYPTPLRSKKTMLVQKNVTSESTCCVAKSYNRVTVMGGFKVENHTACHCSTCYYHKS

- MIF of Fm [1]: 107
- MIF of Fm (Alpha fetoprotein [2]): 48
- MIF of Fm (Alpha fetoprotein [3]): 48
- MIF of Fm [4]: 33
- MIF of Fm [5]: 56
- MIF of Fm (Alpha fetoprotein [6]): 52
- MIF of Fm (Alpha fetoprotein [7]): 48
- MIF of Fm (Alpha fetoprotein [8]): 48
- MIF of Fm (Alpha fetoprotein [9]): 48
- MIF of Fm [10]: 886
Substance: MAB602 monoclonal anti-hCG antibody
